Test results published in EP2842965A1, “Neuromedin U analogs comprising serum albumin binding amino acid residue” (Gubra ApS, priority 2013, dated 2015).
Starred links: 1 amine or outer side, 2 acyl side, 3 side chain; linkers in the order of their positions; H or OH if unused. Residues, ends and D or L forms follow the SMILES beside them. Groups on a side chain read outwards from the residue. No end group written: not given here. *: point of attachment. γGlu = O=C(O)[C@H](CCC(=O)[*:2])N[*:1]; Palmitoyl = CCCCCCCCCCCCCCCC(=O)*

T1: Neuromedin U receptor 1 (UniProt Q9HB89 1-426, limits assumed)
T1 sequence (looked up): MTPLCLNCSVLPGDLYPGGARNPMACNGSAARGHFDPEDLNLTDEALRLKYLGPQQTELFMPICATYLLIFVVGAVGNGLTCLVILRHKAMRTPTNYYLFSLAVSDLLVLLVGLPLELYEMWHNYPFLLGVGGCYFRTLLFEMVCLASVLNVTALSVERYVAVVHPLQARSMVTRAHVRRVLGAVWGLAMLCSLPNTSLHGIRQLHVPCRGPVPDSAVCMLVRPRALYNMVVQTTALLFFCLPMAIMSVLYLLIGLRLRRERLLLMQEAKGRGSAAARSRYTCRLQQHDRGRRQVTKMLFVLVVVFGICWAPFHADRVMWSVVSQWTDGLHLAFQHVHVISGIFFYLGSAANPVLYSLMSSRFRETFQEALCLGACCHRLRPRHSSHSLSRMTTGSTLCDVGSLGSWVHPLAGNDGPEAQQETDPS


Molecular target: T2, Neuromedin U receptor 2 (NMUR2) (Homo sapiens, UniProt Q9GZQ4)
T2 construct: expressed in transfected cells; host or cells: HEK293 cells, transient calcium phosphate transfection; the empty-vector control is pcDNA3
Test: Functional assay (IP3 SPA-ysi assay) in HEK293 cells transfected with NMUR2
Format: cell-based
Details: HEK293 cells transiently transfected with NMUR2; head says cAMP, method describes IP3 SPA readout
Method: All compounds were dissolved in dimethyl sulfoxide (DMSO), and then water was added (total DMSO conc. was 80%). The stock concentration was 1 mM for all the compounds. Stocks were alliquoted and frozen -20°C.
The day before each assay a new standard row was prepared by dilution of the stock solution in assay buffer (1 mM acetic acid + 0.1% bovine serum albumin (BSA)). The following concentrations were prepared (depending on the ligand potency): 10^-5, 10^-6, 10^-7, 10^-7.5, 10^-8, 10^-8.5, 10^-9, 10^-10, 10^-11, 10^-12 M.
Cell cultures: The HEK293 cells are grown in (DMEM31966 glutamax supplemented with 10% FBS (fetal bovine serum) and 1% penicillin G and streptomycin) and incubated at 37°C with 10% CO2 in a humidified atmosphere. The cells were split as follows. HEK293 cells approximately 80% confluent was used. The cells were removed from the bottom of the bottle by removing the media (DMEM31966 glutamax supplemented with 10% FBS and 1% penicillin G and streptomycin), rinsed with 5 mL phosphate buffered saline (PBS) and shaken gently. The PBS was removed and cells were released from the bottom with trypsin (1-2 mL) and incubated for 2-3 min. The flasks were then turned gently to ensure complete release of the cells from the bottom. Then media was added to the cells, (5-8 mL was used to rinse the cells of the bottom, this process was repeated approximately 4 times using the same media). Cell suspension was then transferred to a new bottle (approximately 4 × 10^6 cells per 175 cm^2 flask) and 20 mL media was added. Cells were incubated at 37°C with 10% CO2 in a humidified atmosphere.
Transfection of cells: HEK293 cells were seeded out at the density of 8 × 10^6 cells per 175 cm^2 flask 1 day prior to the transfection. Before transfection of cells, the culture medium was aspirated and half of the standard volume was added. 40 µg receptor-containing plasmid (Neuromedin U receptor 1 (NMUR1) or Neuromedin U receptor 2 (NMUR2)) or "empty" vector plasmid (pcDNA3), as a negative control, was mixed with 60 µL […] CaCl2 and Tris-EDTA (TE) buffer (10 mM tris(hydroxymethyl)aminomethane hydrochloride (Tris HCl), 1 mM ethylenedinitrilotetraacetic acid (EDTA), pH 7.5) to a total volume of 480 µL. The mixture was added drop-wise to another tube containing 480 µL 2 × HEPES buffered saline (HBS buffer) (280 mM NaCl, 50 mM 4-(2-Hydroxyethyl)piperazine-1-ethanesulfonic acid (HEPES), 1.5 mM NaHPO4, pH 7.2) and left for 45 min at room temperature for DNA precipitation. Afterwards, the precipitate was added carefully to the cells and cells were incubated for 5 hours at normal culture conditions. The transfection was stopped by change of the DNA-containing medium with 20 mL of fresh cell culture medium.
Seeding of the cells in 96 well plates: One day after transfection, cells were harvested using trypsin as described above. The cells were seeded in a poly-D-lysine coated clear 96 well plate. 100 µL cell suspension 350.000 cells/mL was added. 3H-myo-inositol (5µL/mL) was added to each well yielding a concentration of 35000 cells/well. The cells were incubated overnight before assay procedure the following day.
IP3 SPA-ysi assay: The media was removed and the plates were washed with 200 µL of Hank's balanced salt solution (HBSS) (Gibco, Life Technologies). 100 µL of HBSS/10 mM LiCl was added and the plates were incubated 15 min at 37°C. 5 µL ligand was added to each well and the plate was incubated at 37°C for 70-90 min (incubation time was approximately 1 h and 16 min for all plates). The plates were placed on ice and 50 µL formic acid (10 mM) was added to each well. The plates was left on ice for at least 30 min. 20 µL was then transferred to a white 96 well plate and 80 µL yttrium silicate (YSi) SPA-beads RPNQ0010 (Perkin Elmer) solution (0.0125 g/mL) is added to each well. The plates were sealed and shaken on high speed for 30 min, then centrifuged for 5 min at 1500 rpm and counted with 8 hours delay in the top counter. […]

T2 sequence (Q9GZQ4 whole entry): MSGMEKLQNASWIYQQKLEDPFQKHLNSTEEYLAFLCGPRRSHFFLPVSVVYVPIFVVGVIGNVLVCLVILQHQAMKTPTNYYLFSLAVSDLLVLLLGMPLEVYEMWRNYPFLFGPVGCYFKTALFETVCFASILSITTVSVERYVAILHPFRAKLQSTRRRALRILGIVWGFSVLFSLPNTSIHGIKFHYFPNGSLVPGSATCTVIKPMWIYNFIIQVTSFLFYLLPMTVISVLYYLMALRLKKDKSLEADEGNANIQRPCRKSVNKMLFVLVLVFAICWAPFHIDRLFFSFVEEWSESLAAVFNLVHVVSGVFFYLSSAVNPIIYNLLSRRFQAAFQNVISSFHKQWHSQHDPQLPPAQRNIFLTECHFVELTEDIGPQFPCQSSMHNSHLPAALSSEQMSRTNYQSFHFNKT

Row | Molecule | EC50
1 | CCCCCCCCCCCCCCCC(=O)N[C@@H](CCC(=O)NCCCC[C@H](NC(=O)[C@H](CCC(N)=O)NC(=O)[C@H](Cc1ccccc1)NC(=O)[C@H](CCC(=O)O)NC(=O)[C@H](CCC(=O)O)NC(=O)[C@H](CC(=O)O)NC(=O)[C@@H](NC(=O)[C@H](CCCNC(=N)N)NC(=O)[C@@H](N)Cc1ccccc1)C(C)C)C(=O)N1CCC[C@H]1C(=O)N[C@@H](Cc1ccccc1)C(=O)N[C@@H](C)C(=O)N[C@@H](CO)C(=O)N[C@@H](CCC(N)=O)C(=O)N[C@@H](CO)C(=O)N[C@@H](CCCNC(=N)N)C(=O)NCC(=O)N[C@@H](Cc1ccc(O)cc1)C(=O)N[C@@H](Cc1ccccc1)C(=O)N[C@@H](CC(C)C)C(=O)N[C@@H](Cc1ccccc1)C(=O)N[C@@H](CCCNC(=N)N)C(=O)N1CCC[C@H]1C(=O)N[C@@H](CCCNC(=N)N)C(=O)N[C@@H](CC(N)=O)C(N)=O)C(=O)O [SEQ ID NO 11] (H-FRVDEEFQK([γGlu-Palmitoyl])PFASQSRGYFLFRPRN-NH2) | 94.3 nM
2 | H-FRVDEEFQSPFASQSRGYFLFRPRN-NH2 [Human NMU, reference compound] | 4.26 nM

Molecular target: T1, Neuromedin U receptor 1
Test: cell-based or functional assay
Details: not given

Row | Molecule | NMUR1 cAMP EC50
3 | FRVDEEFQK([γGlu-Palmitoyl])PFASQSRGYFLFRPRN-NH2 (N-terminus assumed; SMILES CCCCCCCCCCCCCCCC(=O)N[C@@H](CCC(=O)NCCCC[C@H](NC(=O)[C@H](CCC(N)=O)NC(=O)[C@H](Cc1ccccc1)NC(=O)[C@H](CCC(=O)O)NC(=O)[C@H](CCC(=O)O)NC(=O)[C@H](CC(=O)O)NC(=O)[C@@H](NC(=O)[C@H](CCCNC(=N)N)NC(=O)[C@@H](N)Cc1ccccc1)C(C)C)C(=O)N1CCC[C@H]1C(=O)N[C@@H](Cc1ccccc1)C(=O)N[C@@H](C)C(=O)N[C@@H](CO)C(=O)N[C@@H](CCC(N)=O)C(=O)N[C@@H](CO)C(=O)N[C@@H](CCCNC(=N)N)C(=O)NCC(=O)N[C@@H](Cc1ccc(O)cc1)C(=O)N[C@@H](Cc1ccccc1)C(=O)N[C@@H](CC(C)C)C(=O)N[C@@H](Cc1ccccc1)C(=O)N[C@@H](CCCNC(=N)N)C(=O)N1CCC[C@H]1C(=O)N[C@@H](CCCNC(=N)N)C(=O)N[C@@H](CC(N)=O)C(N)=O)C(=O)O) [SEQ ID NO 11 (NMU analog acylated at K9)] | 74 nM
4 | FRVDEK([γGlu-Palmitoyl])FQSPFASQSRGYFLFRPRN-NH2 (N-terminus assumed; SMILES CCCCCCCCCCCCCCCC(=O)N[C@@H](CCC(=O)NCCCC[C@H](NC(=O)[C@H](CCC(=O)O)NC(=O)[C@H](CC(=O)O)NC(=O)[C@@H](NC(=O)[C@H](CCCNC(=N)N)NC(=O)[C@@H](N)Cc1ccccc1)C(C)C)C(=O)N[C@@H](Cc1ccccc1)C(=O)N[C@@H](CCC(N)=O)C(=O)N[C@@H](CO)C(=O)N1CCC[C@H]1C(=O)N[C@@H](Cc1ccccc1)C(=O)N[C@@H](C)C(=O)N[C@@H](CO)C(=O)N[C@@H](CCC(N)=O)C(=O)N[C@@H](CO)C(=O)N[C@@H](CCCNC(=N)N)C(=O)NCC(=O)N[C@@H](Cc1ccc(O)cc1)C(=O)N[C@@H](Cc1ccccc1)C(=O)N[C@@H](CC(C)C)C(=O)N[C@@H](Cc1ccccc1)C(=O)N[C@@H](CCCNC(=N)N)C(=O)N1CCC[C@H]1C(=O)N[C@@H](CCCNC(=N)N)C(=O)N[C@@H](CC(N)=O)C(N)=O)C(=O)O) [SEQ ID NO 14 (NMU analog acylated at K6)] | 51.5 nM
5 | FRVDEEFQSPFASQK([γGlu-Palmitoyl])RGYFLFRPRN-NH2 (N-terminus assumed; SMILES CCCCCCCCCCCCCCCC(=O)N[C@@H](CCC(=O)NCCCC[C@H](NC(=O)[C@H](CCC(N)=O)NC(=O)[C@H](CO)NC(=O)[C@H](C)NC(=O)[C@H](Cc1ccccc1)NC(=O)[C@@H]1CCCN1C(=O)[C@H](CO)NC(=O)[C@H](CCC(N)=O)NC(=O)[C@H](Cc1ccccc1)NC(=O)[C@H](CCC(=O)O)NC(=O)[C@H](CCC(=O)O)NC(=O)[C@H](CC(=O)O)NC(=O)[C@@H](NC(=O)[C@H](CCCNC(=N)N)NC(=O)[C@@H](N)Cc1ccccc1)C(C)C)C(=O)N[C@@H](CCCNC(=N)N)C(=O)NCC(=O)N[C@@H](Cc1ccc(O)cc1)C(=O)N[C@@H](Cc1ccccc1)C(=O)N[C@@H](CC(C)C)C(=O)N[C@@H](Cc1ccccc1)C(=O)N[C@@H](CCCNC(=N)N)C(=O)N1CCC[C@H]1C(=O)N[C@@H](CCCNC(=N)N)C(=O)N[C@@H](CC(N)=O)C(N)=O)C(=O)O) [SEQ ID NO 5 (NMU analog acylated at K15)] | 195 nM
6 | FRVDEEFQSPFAK([γGlu-Palmitoyl])QSRGYFLFRPRN-NH2 (N-terminus assumed; SMILES CCCCCCCCCCCCCCCC(=O)N[C@@H](CCC(=O)NCCCC[C@H](NC(=O)[C@H](C)NC(=O)[C@H](Cc1ccccc1)NC(=O)[C@@H]1CCCN1C(=O)[C@H](CO)NC(=O)[C@H](CCC(N)=O)NC(=O)[C@H](Cc1ccccc1)NC(=O)[C@H](CCC(=O)O)NC(=O)[C@H](CCC(=O)O)NC(=O)[C@H](CC(=O)O)NC(=O)[C@@H](NC(=O)[C@H](CCCNC(=N)N)NC(=O)[C@@H](N)Cc1ccccc1)C(C)C)C(=O)N[C@@H](CCC(N)=O)C(=O)N[C@@H](CO)C(=O)N[C@@H](CCCNC(=N)N)C(=O)NCC(=O)N[C@@H](Cc1ccc(O)cc1)C(=O)N[C@@H](Cc1ccccc1)C(=O)N[C@@H](CC(C)C)C(=O)N[C@@H](Cc1ccccc1)C(=O)N[C@@H](CCCNC(=N)N)C(=O)N1CCC[C@H]1C(=O)N[C@@H](CCCNC(=N)N)C(=O)N[C@@H](CC(N)=O)C(N)=O)C(=O)O) [SEQ ID NO 8 (NMU analog acylated at K13)] | 114 nM
7 | FRVK([γGlu-Palmitoyl])EEFQSPFASQSRGYFLFRPRN-NH2 (N-terminus assumed; SMILES CCCCCCCCCCCCCCCC(=O)N[C@@H](CCC(=O)NCCCC[C@H](NC(=O)[C@@H](NC(=O)[C@H](CCCNC(=N)N)NC(=O)[C@@H](N)Cc1ccccc1)C(C)C)C(=O)N[C@@H](CCC(=O)O)C(=O)N[C@@H](CCC(=O)O)C(=O)N[C@@H](Cc1ccccc1)C(=O)N[C@@H](CCC(N)=O)C(=O)N[C@@H](CO)C(=O)N1CCC[C@H]1C(=O)N[C@@H](Cc1ccccc1)C(=O)N[C@@H](C)C(=O)N[C@@H](CO)C(=O)N[C@@H](CCC(N)=O)C(=O)N[C@@H](CO)C(=O)N[C@@H](CCCNC(=N)N)C(=O)NCC(=O)N[C@@H](Cc1ccc(O)cc1)C(=O)N[C@@H](Cc1ccccc1)C(=O)N[C@@H](CC(C)C)C(=O)N[C@@H](Cc1ccccc1)C(=O)N[C@@H](CCCNC(=N)N)C(=O)N1CCC[C@H]1C(=O)N[C@@H](CCCNC(=N)N)C(=O)N[C@@H](CC(N)=O)C(N)=O)C(=O)O) [SEQ ID NO 17 (NMU analog acylated at K4)] | 45.5 nM
8 | FRVDEEFQSPFASQSRGYFLFRPRN-NH2 [Human neuromedin U] | 2.57 nM
